We go through twelve substances from paper PMC11525548.

A word on the Kd: it is the constant that tells how readily two partners part at equilibrium. A high value points to weaker binding. What is called koff is the rate constant with which the complex falls apart. Read a high koff as fast dissociation. For orientation: kon means the second-order rate constant of association. Lower therefore signals slow association.

The target of one test is human CEACAM5 extracellular domain (Homo sapiens) (UniProt P06731). As to the kind of experiment: SPR. (In general: Surface plasmon resonance follows binding to a sensor surface in real time, without labels.)
With “tusa Fab+Fc heavy chain Ser30Ala variant (antibody)”, the dissociation constant Kd stood at 6.7 nM, the koff stood at 0.00205 s⁻¹ and the kon is 307000 M⁻¹ s⁻¹.
“tusa Fab+Fc light chain His91Ala variant (antibody)” showed a koff of 0.0637 s⁻¹ and a kon of 73200 M⁻¹ s⁻¹.
On to “tusa Fab+Fc heavy chain Gly26Ala variant (antibody)”, for which the Kd was 8.2 nM, the off-rate (koff) amounted to 0.00322 s⁻¹ and the kon worked out at 395000 M⁻¹ s⁻¹.
The like results for “tusamitamab antigen-binding fragment region plus the fragment crystallizable region, wild type (antibody)” were, in that order, 14 nM, 0.00386 s⁻¹ and 275000 M⁻¹ s⁻¹.
Consider “tusa Fab+Fc heavy chain Phe29Ala variant (antibody)”, for which the Kd stood at 8.2 nM and the koff came to 0.00368 s⁻¹.
“tusa Fab+Fc heavy chain Ser53Ala variant (antibody)”: the Kd came to 5.6 nM and the kon was determined as 321000 M⁻¹ s⁻¹.
In turn, “tusa Fab+Fc light chain Tyr92Ala variant (antibody)” yielded a Kd of 1790 nM, a koff of 0.0552 s⁻¹ and a kon of 30800 M⁻¹ s⁻¹.
For “tusa Fab+Fc heavy chain Tyr50Ala variant (antibody)” the same measures were 2010 nM, 0.0531 s⁻¹ and 26400 M⁻¹ s⁻¹.
For “tusa Fab+Fc light chain Ser31Ala variant (antibody)” the same measures were 8.2 nM, 0.00238 s⁻¹ and 291000 M⁻¹ s⁻¹.
In turn, “tusa Fab+Fc heavy chain His99Ala variant (antibody)” came in with a dissociation constant (Kd) of 306 nM, a koff of 0.0199 s⁻¹ and a kon of 64800 M⁻¹ s⁻¹.
The substance “tusa Fab+Fc light chain Phe30Ala variant (antibody)” showed a Kd of 1340 nM, a koff of 0.0362 s⁻¹ and a t1/2 of dissociation of 18 s.

Another test addresses tusa Fab+Fc light chain Pro95Ala variant (human) (UniProt P01834). As to the kind of experiment: SPR.
As for “human CEACAM5 extracellular domain (from UniProt P06731 35-685) (domain or fragment)”, the Kd worked out at 13500 nM, the koff was 0.0177 s⁻¹ and the kon worked out at 1310 M⁻¹ s⁻¹.
